The subject of this data set is His/Xpress-Gemin5 (pcDNA3Xpress-Gemin5). Description: pull-down (UV-irradiated HEK293 cells, Ni-NTA, RT-qPCR). The settings on record: EMSA: RNA folded in 100 mM HEPES pH 8.0, 100 mM NaCl, 5.25 mM MgCl2, 37 C; binding in 40 mM Tris-HCl pH 7.5, 250 mM NaCl, 0.1% (w/v) bME, 15 min, room ….

Here are results for one substance from PMC9392717.

Substance L32-WT-luc mRNA (5'TOP) displayed a binding signal (fold vs L32-CM6) of 5.
